Test results: patent US20240261333A1, “NOVEL TARGETS FOR ENHANCING ANTI-TUMOR IMMUNITY” (THE BROAD INSTITUTE, INC., priority 2021, published 2024)

Key:
[1] = target: CALU (human) (UniProt O43852); test: co-IP/MS, IgG control IP of C-FLAG B3GNT2 cell lysate
[2] = target: CKAP4 (human) (UniProt Q07065); test: as above
[3] = target: ERLIN2 (human) (UniProt O94905); test: as above
[4] = target: FKBP10 (human) (UniProt Q96AY3); test: as above
[5] = target: GCN1 (human) (UniProt Q92616); test: as above
[6] = target: HSD17B12 (human) (UniProt Q53GQ0); test: as above
HSD17B12 (human), sequence (Q53GQ0 whole entry): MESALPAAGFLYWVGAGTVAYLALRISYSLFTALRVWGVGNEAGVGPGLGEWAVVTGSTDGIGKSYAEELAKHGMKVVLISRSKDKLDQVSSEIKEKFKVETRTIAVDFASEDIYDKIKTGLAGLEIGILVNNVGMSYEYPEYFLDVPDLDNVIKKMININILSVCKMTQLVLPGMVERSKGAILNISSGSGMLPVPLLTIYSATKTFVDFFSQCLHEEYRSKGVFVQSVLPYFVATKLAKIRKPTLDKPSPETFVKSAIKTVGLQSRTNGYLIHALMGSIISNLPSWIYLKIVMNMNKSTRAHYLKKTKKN

[7] = target: PDIA6 (human) (UniProt Q15084); test: as above
PDIA6 (human), sequence (Q15084 20-440 limits assumed): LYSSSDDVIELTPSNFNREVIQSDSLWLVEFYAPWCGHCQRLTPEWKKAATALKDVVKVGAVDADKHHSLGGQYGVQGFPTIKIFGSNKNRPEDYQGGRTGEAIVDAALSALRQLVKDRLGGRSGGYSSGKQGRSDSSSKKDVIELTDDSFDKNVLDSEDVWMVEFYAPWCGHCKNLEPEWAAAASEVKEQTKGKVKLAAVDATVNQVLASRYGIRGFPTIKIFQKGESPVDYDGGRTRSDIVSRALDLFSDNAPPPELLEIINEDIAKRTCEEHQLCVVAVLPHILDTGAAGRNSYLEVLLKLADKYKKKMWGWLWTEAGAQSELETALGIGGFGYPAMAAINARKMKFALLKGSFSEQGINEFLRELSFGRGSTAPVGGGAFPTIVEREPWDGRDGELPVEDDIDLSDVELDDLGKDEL

[8] = target: PRDX2 (human) (UniProt P32119); test: as above
[9] = target: RCN2 (human) (UniProt Q14257); test: as above
[10] = target: RPL13A (human) (UniProt P40429); test: as above
[11] = target: RPL14 (human) (UniProt P50914); test: as above
[12] = target: RPL24 (human) (UniProt P83731); test: as above
[13] = target: RPS12 (human) (UniProt P25398); test: as above
[14] = target: RPS15 (human) (UniProt P62841); test: as above
[15] = target: RPS5 (human) (UniProt P46782); test: as above
[16] = target: TGM3 (human) (UniProt Q08188); test: as above
[17] = target: UQCRC2 (human) (UniProt P22695); test: as above
[18] = target: S100A8 (UniProt P05109); test: co-IP with anti-FLAG, mass spectrometry; N-FLAG B3GNT2
S100A8, sequence (P05109 whole entry): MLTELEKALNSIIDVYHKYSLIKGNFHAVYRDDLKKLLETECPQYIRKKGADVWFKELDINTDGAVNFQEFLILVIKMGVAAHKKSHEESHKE

[19] = target: SPRR2E (UniProt P22531); test: as above
SPRR2E, sequence (P22531 whole entry): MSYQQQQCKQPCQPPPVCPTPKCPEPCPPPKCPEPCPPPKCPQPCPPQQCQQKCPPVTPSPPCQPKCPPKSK

[20] = target: TRIM21 (UniProt P19474); test: as above
[21] = target: ARF4 (human) (UniProt P18085); test: co-IP with anti-FLAG, mass spectrometry; lysate of cells with N-FLAG B3GNT2
[22] = target: ARHGEF2 (human) (UniProt Q92974); test: as above
[23] = target: DNAJB11 (human) (UniProt Q9UBS4); test: as above
[24] = target: EIF4A1 (human) (UniProt P60842); test: as above
EIF4A1 (human), sequence (P60842 2-406 limits assumed): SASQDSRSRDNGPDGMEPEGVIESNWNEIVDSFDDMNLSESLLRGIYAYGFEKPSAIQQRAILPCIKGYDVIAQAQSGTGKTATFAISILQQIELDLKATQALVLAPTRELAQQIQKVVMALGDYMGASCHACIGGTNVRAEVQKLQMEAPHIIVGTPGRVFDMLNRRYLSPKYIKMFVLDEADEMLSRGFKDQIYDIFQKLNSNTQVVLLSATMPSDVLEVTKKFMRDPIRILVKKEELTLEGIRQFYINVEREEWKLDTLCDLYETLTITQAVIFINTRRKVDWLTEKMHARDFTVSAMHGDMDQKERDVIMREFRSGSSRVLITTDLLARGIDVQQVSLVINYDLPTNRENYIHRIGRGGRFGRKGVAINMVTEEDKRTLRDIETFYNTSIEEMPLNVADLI

[25] = target: EPRS (human) (UniProt P07814); test: as above
EPRS (human), sequence (P07814 whole entry): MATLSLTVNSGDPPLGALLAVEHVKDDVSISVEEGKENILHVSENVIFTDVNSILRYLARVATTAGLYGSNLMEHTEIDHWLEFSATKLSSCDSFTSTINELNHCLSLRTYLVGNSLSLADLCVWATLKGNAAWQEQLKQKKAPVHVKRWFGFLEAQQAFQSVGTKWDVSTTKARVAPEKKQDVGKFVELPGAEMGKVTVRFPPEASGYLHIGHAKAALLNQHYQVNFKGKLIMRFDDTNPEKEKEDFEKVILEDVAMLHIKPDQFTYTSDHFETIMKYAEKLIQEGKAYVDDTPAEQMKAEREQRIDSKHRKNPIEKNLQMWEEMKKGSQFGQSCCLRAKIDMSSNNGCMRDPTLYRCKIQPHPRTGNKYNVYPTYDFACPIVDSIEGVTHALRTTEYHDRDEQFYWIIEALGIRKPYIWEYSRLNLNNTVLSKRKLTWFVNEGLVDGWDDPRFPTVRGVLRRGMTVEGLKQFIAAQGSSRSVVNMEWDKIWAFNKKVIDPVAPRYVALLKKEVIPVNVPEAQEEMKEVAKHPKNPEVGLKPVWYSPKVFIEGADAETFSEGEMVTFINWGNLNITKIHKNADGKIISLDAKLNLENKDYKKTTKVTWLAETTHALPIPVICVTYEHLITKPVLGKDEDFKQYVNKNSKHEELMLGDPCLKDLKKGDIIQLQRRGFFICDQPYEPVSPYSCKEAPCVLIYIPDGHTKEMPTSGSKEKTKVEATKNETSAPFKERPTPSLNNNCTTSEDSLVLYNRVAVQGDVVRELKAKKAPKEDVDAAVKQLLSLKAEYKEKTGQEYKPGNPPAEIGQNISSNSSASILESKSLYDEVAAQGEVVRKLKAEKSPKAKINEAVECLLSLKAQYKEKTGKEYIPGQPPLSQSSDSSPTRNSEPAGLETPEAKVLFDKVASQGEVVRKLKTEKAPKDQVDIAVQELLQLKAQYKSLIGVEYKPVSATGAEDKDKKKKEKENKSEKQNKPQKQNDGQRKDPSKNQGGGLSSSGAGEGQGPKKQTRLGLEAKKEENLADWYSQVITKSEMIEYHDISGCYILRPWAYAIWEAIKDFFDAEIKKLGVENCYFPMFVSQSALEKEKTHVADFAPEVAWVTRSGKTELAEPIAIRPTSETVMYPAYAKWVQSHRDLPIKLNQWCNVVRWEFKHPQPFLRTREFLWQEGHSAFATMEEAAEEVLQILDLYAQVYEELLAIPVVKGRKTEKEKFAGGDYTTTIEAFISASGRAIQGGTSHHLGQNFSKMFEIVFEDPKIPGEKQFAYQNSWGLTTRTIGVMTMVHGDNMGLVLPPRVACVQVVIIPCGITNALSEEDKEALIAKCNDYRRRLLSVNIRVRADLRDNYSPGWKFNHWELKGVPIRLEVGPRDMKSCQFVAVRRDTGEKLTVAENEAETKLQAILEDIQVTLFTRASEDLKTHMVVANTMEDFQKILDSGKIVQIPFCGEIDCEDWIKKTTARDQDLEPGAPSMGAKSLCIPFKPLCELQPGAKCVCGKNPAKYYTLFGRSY

[26] = target: HSPD1 (human) (UniProt P10809); test: as above
[27] = target: ILF3 (human) (UniProt Q12906); test: as above
[28] = target: MARS (human) (UniProt P56192); test: as above
[29] = target: MSN (human) (UniProt P26038); test: as above
[30] = target: MYO1C (human) (UniProt O00159); test: as above
[31] = target: PIGR (human) (UniProt P01833); test: as above
[32] = target: PSMD4 (human) (UniProt P55036); test: as above
[33] = target: RPS27 (human) (UniProt P42677); test: as above
[34] = target: SEL1L (human) (UniProt Q9UBV2); test: as above
[35] = target: SLC25A5 (human) (UniProt P05141); test: as above
SLC25A5 (human), sequence (P05141 2-298 limits assumed): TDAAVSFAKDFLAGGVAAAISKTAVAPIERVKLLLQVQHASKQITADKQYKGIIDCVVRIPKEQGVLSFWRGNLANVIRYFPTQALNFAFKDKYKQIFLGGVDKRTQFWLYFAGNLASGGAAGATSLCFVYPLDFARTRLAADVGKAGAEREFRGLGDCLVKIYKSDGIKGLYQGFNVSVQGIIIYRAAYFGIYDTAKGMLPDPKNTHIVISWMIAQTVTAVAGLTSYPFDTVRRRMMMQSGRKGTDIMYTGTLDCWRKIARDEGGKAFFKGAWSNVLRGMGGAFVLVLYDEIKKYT

[36] = target: SPRR1A (human) (UniProt P35321); test: as above
[37] = target: UGGT1 (human) (UniProt Q9NYU2); test: as above
UGGT1 (human), sequence (Q9NYU2 43-1555 limits assumed): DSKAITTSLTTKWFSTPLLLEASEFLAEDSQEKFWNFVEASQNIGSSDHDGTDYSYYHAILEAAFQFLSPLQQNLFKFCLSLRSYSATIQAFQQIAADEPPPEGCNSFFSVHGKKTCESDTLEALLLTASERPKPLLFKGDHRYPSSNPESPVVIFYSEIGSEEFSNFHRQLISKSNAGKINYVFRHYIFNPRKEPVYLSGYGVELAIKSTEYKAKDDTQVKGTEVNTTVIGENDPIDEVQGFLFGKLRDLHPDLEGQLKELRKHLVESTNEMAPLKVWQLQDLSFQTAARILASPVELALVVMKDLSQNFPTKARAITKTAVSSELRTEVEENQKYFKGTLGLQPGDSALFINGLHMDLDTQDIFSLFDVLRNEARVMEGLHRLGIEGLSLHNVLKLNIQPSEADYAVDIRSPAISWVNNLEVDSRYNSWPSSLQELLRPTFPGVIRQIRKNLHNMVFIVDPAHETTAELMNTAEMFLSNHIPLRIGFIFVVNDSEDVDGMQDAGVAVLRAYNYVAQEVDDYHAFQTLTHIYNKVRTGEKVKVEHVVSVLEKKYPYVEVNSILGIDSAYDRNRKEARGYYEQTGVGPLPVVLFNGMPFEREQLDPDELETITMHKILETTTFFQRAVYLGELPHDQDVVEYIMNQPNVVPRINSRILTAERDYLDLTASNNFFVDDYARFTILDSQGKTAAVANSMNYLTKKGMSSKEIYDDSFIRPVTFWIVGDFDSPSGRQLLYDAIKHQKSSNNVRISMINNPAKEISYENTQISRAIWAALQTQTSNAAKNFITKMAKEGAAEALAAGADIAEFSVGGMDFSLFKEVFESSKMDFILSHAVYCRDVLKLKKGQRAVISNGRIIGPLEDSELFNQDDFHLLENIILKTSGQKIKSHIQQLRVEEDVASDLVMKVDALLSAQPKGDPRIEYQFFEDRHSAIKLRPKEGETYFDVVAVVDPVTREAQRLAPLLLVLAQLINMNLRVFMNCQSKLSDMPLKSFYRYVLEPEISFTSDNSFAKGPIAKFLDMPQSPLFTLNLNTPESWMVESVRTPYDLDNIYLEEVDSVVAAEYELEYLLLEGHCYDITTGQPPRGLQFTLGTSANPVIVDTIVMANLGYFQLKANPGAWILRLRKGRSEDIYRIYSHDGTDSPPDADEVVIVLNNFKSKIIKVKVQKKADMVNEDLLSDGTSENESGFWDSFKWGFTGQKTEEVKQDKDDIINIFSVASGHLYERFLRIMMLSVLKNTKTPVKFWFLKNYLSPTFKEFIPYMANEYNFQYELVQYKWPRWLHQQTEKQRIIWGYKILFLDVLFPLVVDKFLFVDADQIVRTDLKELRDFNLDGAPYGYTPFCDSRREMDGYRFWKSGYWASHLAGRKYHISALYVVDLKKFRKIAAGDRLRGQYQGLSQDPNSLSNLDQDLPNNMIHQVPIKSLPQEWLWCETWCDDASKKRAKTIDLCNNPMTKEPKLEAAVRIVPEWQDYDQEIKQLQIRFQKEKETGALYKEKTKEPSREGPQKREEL

[38] = target: ZC3HAV1 (human) (UniProt Q7Z2W4); test: as above

ERLIN2 (human), sequence (O94905 whole entry): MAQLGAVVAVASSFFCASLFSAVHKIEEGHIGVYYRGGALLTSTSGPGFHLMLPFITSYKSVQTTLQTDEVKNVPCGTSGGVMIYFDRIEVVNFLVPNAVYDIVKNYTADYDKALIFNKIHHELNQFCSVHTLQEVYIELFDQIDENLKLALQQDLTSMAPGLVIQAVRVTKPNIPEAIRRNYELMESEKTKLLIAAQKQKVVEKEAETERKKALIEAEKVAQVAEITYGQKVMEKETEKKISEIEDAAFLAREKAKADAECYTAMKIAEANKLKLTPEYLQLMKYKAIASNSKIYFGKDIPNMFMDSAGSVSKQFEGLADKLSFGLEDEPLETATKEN

“IgG control (Millipore Sigma 12-371) (antibody)” showed a co-IP mass spectrometry count [1] of 0, a co-IP mass spectrometry count [2] of 0 and a co-IP mass spectrometry count [3] of 0. It also gave a co-IP mass spectrometry count [4] of 0, a co-IP mass spectrometry count [5] of 0 and a co-IP mass spectrometry count [6] of 0. The co-IP mass spectrometry count [7] was 0, the co-IP mass spectrometry count [8] was 0 and the co-IP mass spectrometry count [9] was 0. It also gave a co-IP mass spectrometry count [10] of 0, a co-IP mass spectrometry count [11] of 8 and a co-IP mass spectrometry count [12] of 3. For the same substance, the co-IP mass spectrometry count [13] was 4, the co-IP mass spectrometry count [14] was 2 and the co-IP mass spectrometry count [15] was 0. For the same substance, the co-IP mass spectrometry count [16] was 3 and the co-IP mass spectrometry count [17] was 0.
For “N-terminal FLAG tagged B3GNT2 (from UniProt Q9NY97 1-397) (enzyme)”, the co-IP mass spectrometry count [18] was 15, the co-IP mass spectrometry count [19] was 16 and the co-IP mass spectrometry count [20] was 6. For the same substance, the co-IP mass spectrometry count [21] was 4, the co-IP mass spectrometry count [22] was 0 and the co-IP mass spectrometry count [23] was 3. For the same substance, the co-IP mass spectrometry count [24] was 2, the co-IP mass spectrometry count [25] was 3 and the co-IP mass spectrometry count [26] was 10. It also gave a co-IP mass spectrometry count [27] of 2, a co-IP mass spectrometry count [28] of 2 and a co-IP mass spectrometry count [29] of 3. The co-IP mass spectrometry count [30] was 4, the co-IP mass spectrometry count [31] was 2 and the co-IP mass spectrometry count [32] was 2. For the same substance, the co-IP mass spectrometry count [33] was 2, the co-IP mass spectrometry count [34] was 3 and the co-IP mass spectrometry count [35] was 19. For the same substance, the co-IP mass spectrometry count [36] was 4, the co-IP mass spectrometry count [37] was 2 and the co-IP mass spectrometry count [38] was 3.
